Reference: the Immune Epitope Database (IEDB)

Key:
HLA-A*01:01 [1] = assay: IEDB peptide-MHC binding, purified MHC/direct/fluorescence; filed as Kd, often an IC50 or EC50 that approximates it; ≥ and ≤ were set here for values at or beyond the usual limits of such assays
HLA-A*11:01 = assay: as above
HLA-A*31:01 = assay: as above
HLA-A*68:02 [2] = assay: as above; conditions: source organism: Francisella tularensis subsp. holarctica LVS
HLA-A*69:01 = assay: as above
HLA-B*07:02 [3] = assay: as above
HLA-B*15:09 = assay: as above
HLA-B*15:17 = assay: as above
HLA-B*18:01 = assay: as above
HLA-B*27:05 = assay: as above
HLA-B*39:01 [4] = assay: as above
HLA-B*48:01 = assay: as above; conditions: source organism: Francisella tularensis subsp. holarctica LVS
HLA-B*57:01 = assay: as above
HLA-B*58:01 = assay: as above
HLA-A*02:03 = assay: IEDB peptide-MHC binding, purified MHC/competitive/fluorescence; filed as Kd, often an IC50 or EC50 that approximates it; ≥ and ≤ were set here for values at or beyond the usual limits of such assays; conditions: source organism: Francisella tularensis subsp. tularensis FSC198
HLA-A*26:02 = assay: as above; conditions: source organism: Francisella tularensis subsp. tularensis FSC198
HLA-B*08:01 [5] = assay: as above; conditions: source organism: Francisella tularensis subsp. tularensis FSC198
HLA-B*15:01 [6] = assay: as above
HLA-A*02:01 [7] = assay: IEDB peptide-MHC binding, purified MHC/direct/fluorescence; filed as Kd, often an IC50 or EC50 that approximates it; ≥ and ≤ were set here for values at or beyond the usual limits of such assays
HLA-A*03:01 = assay: as above
HLA-A*26:01 = assay: as above
HLA-B*08:01 [8] = assay: as above
HLA-B*15:01 [9] = assay: as above
HLA-B*35:01 = assay: as above
HLA-B*40:01 [10] = assay: as above; conditions: source organism: Vibrio parahaemolyticus
HLA-B*44:02 = assay: as above; conditions: source organism: Vibrio parahaemolyticus
HLA-B*40:01 [11] = assay: IEDB peptide-MHC binding, purified MHC/competitive/fluorescence; filed as Kd, often an IC50 or EC50 that approximates it; ≥ and ≤ were set here for values at or beyond the usual limits of such assays
HLA-A*24:03 = assay: IEDB peptide-MHC binding, purified MHC/direct/fluorescence; filed as Kd, often an IC50 or EC50 that approximates it; ≥ and ≤ were set here for values at or beyond the usual limits of such assays
HLA-C*14:02 = assay: as above; conditions: source organism: Salmonella enterica subsp. enterica serovar Typhi str. CT18
HLA-A*02:01 [12] = assay: IEDB peptide-MHC binding, purified MHC/competitive/fluorescence; filed as Kd, often an IC50 or EC50 that approximates it; ≥ and ≤ were set here for values at or beyond the usual limits of such assays; conditions: source organism: Yersinia pestis Nepal516
HLA-B*39:01 [13] = assay: as above; conditions: source organism: Yersinia pestis Nepal516
HLA-A*23:01 = assay: IEDB peptide-MHC binding, purified MHC/direct/fluorescence; filed as Kd, often an IC50 or EC50 that approximates it; ≥ and ≤ were set here for values at or beyond the usual limits of such assays; conditions: source organism: Bacillus anthracis
HLA-A*24:02 = assay: as above; conditions: source organism: Bacillus anthracis
HLA-A*68:02 [14] = assay: IEDB peptide-MHC binding, purified MHC/competitive/fluorescence; filed as Kd, often an IC50 or EC50 that approximates it; ≥ and ≤ were set here for values at or beyond the usual limits of such assays; conditions: source organism: Bacillus anthracis str. A2012
HLA-A*30:01 = assay: IEDB peptide-MHC binding, purified MHC/direct/fluorescence; filed as Kd, often an IC50 or EC50 that approximates it; ≥ and ≤ were set here for values at or beyond the usual limits of such assays; conditions: source organism: Vibrio parahaemolyticus
HLA-A*02:11 = assay: IEDB peptide-MHC binding, purified MHC/competitive/fluorescence; filed as Kd, often an IC50 or EC50 that approximates it; ≥ and ≤ were set here for values at or beyond the usual limits of such assays; conditions: source organism: Haemophilus influenzae 22.1-21
HLA-A*02:12 = assay: as above; conditions: source organism: Haemophilus influenzae 22.1-21
HLA-A*01:01 [15] = assay: as above; conditions: source organism: Homo sapiens
HLA-A*29:02 = assay: as above; conditions: source organism: Homo sapiens
HLA-C*05:01 = assay: IEDB peptide-MHC binding, purified MHC/direct/fluorescence; filed as Kd, often an IC50 or EC50 that approximates it; ≥ and ≤ were set here for values at or beyond the usual limits of such assays; conditions: source organism: Salmonella enterica subsp. enterica serovar Typhi str. CT18
HLA-B*07:02 [16] = assay: IEDB peptide-MHC binding, purified MHC/competitive/fluorescence; filed as Kd, often an IC50 or EC50 that approximates it; ≥ and ≤ were set here for values at or beyond the usual limits of such assays; conditions: source organism: Salmonella enterica subsp. enterica serovar Typhi
HLA-B*51:01 = assay: as above; conditions: source organism: Salmonella enterica subsp. enterica serovar Typhi
[17] = source organism: Francisella tularensis subsp. holarctica LVS
[18] = source organism: Francisella tularensis subsp. tularensis FSC033
[19] = source organism: Vibrio parahaemolyticus
[20] = source organism: Escherichia coli B171
[21] = source organism: Pseudomonas sp. KIE171
[22] = source organism: Yersinia pestis Nepal516
[23] = source organism: Bacillus anthracis
[24] = source organism: Bacillus anthracis str. A0465
[25] = source organism: Haemophilus influenzae

**Q.** Which results are given for KRINSLIKY?
**A.** Kd (HLA-A*01:01 [1]; [17]): ≥ 20 µM; Kd (HLA-A*11:01; [17]): ≥ 20 µM; Kd (HLA-A*31:01; [17]): ≥ 20 µM; Kd (HLA-A*68:02 [2]): ≥ 20 µM; Kd (HLA-A*69:01; [17]): ≥ 20 µM; Kd (HLA-B*07:02 [3]; [17]): ≥ 20 µM; Kd (HLA-B*15:09; [18]): ≥ 20000 nM; Kd (HLA-B*15:17; [17]): ≥ 20 µM; Kd (HLA-B*18:01; [17]): ≥ 20 µM; Kd (HLA-B*27:05; [17]): 0.132 µM; Kd (HLA-B*39:01 [4]; [18]): ≥ 20000 nM; Kd (HLA-B*48:01): ≥ 20 µM; Kd (HLA-B*57:01; [17]): ≥ 20 µM; Kd (HLA-B*58:01; [17]): ≥ 20 µM; Kd (HLA-A*02:03): 2470 nM; Kd (HLA-A*26:02): ≥ 20 µM; Kd (HLA-B*08:01 [5]): ≥ 20 µM; Kd (HLA-B*15:01 [6]; source organism: Francisella tularensis subsp. tularensis FSC198): 3000 nM

**Q.** What does the source list for NSDPEFNVL?
**A.** Kd (HLA-A*01:01 [1]; [19]): 0.387 µM; Kd (HLA-A*02:01 [7]; [19]): ≥ 20 µM; Kd (HLA-A*03:01; [19]): ≥ 20 µM; Kd (HLA-A*11:01; [19]): ≥ 20 µM; Kd (HLA-A*26:01; [19]): ≥ 20 µM; Kd (HLA-A*31:01; [19]): ≥ 20 µM; Kd (HLA-A*69:01; [19]): ≥ 20 µM; Kd (HLA-B*07:02 [3]; [19]): ≥ 20 µM; Kd (HLA-B*08:01 [8]; [19]): ≥ 20 µM; Kd (HLA-B*15:01 [9]; [19]): ≥ 20000 nM; Kd (HLA-B*27:05; [19]): ≥ 20 µM; Kd (HLA-B*35:01; [19]): 208 nM; Kd (HLA-B*39:01 [4]; source organism: Vibrio parahaemolyticus AQ3810): 13 nM; Kd (HLA-B*40:01 [10]): 5.06 µM; Kd (HLA-B*44:02): ≥ 20 µM; Kd (HLA-B*58:01; [19]): ≥ 20 µM

**Q.** What does the source list for AELRLVHEL?
**A.** Kd (HLA-B*15:01 [6]; [20]): ≥ 20000 nM; Kd (HLA-B*40:01 [11]; [20]): 6.9 nM

**Q.** What does the source list for VPWQEKTAS?
**A.** Kd (HLA-A*24:03; [21]): 10.5 µM; Kd (HLA-B*07:02 [3]; [21]): 5.81 µM; Kd (HLA-B*35:01; [21]): 3.28 nM

**Q.** Which Kd (HLA-C*14:02) does the source give for AETLMAQPF here?
**A.** 2310 nM

**Q.** What about the Kd (HLA-B*40:01 [11]; source organism: Salmonella enterica subsp. enterica serovar Typhi) of the same sequence?
**A.** 12.2 nM

**Q.** With SQMGLSCAL as the sequence, how does the Kd (HLA-A*02:01 [12]) read?
**A.** 4.6 nM

**Q.** What about the Kd (HLA-B*15:01 [6]; [22]) of the same sequence?
**A.** 97.6 nM

**Q.** What about the Kd (HLA-B*39:01 [13]) of the same sequence?
**A.** 3.5 nM

**Q.** And the Kd (HLA-B*40:01 [11]; [22])?
**A.** 566 nM

**Q.** For YFENSDLNL, which Kd (HLA-A*01:01 [1]; [23]) is on record?
**A.** ≥ 20 µM

**Q.** What about the Kd (HLA-A*02:01 [7]; [23]) of the same sequence?
**A.** ≥ 20 µM

**Q.** What about the Kd (HLA-A*03:01; [23]) of the same sequence?
**A.** ≥ 20 µM

**Q.** And the Kd (HLA-A*11:01; [23])?
**A.** ≥ 20 µM

**Q.** And the Kd (HLA-A*23:01)?
**A.** 650 nM

**Q.** What about the Kd (HLA-A*24:02) of the same sequence?
**A.** 7.5 µM

**Q.** What about the Kd (HLA-A*24:03; [23]) of the same sequence?
**A.** 0.13 µM

**Q.** What about the Kd (HLA-A*26:01; [24]) of the same sequence?
**A.** ≥ 20 µM

**Q.** What about the Kd (HLA-A*31:01; [23]) of the same sequence?
**A.** ≥ 20 µM

**Q.** And the Kd (HLA-B*07:02 [3]; [23])?
**A.** ≥ 20 µM

**Q.** And the Kd (HLA-B*08:01 [8]; [24])?
**A.** ≥ 20 µM

**Q.** What about the Kd (HLA-B*15:01 [9]; [23]) of the same sequence?
**A.** ≥ 5000 nM

**Q.** And the Kd (HLA-B*15:09; [24])?
**A.** ≥ 20000 nM

**Q.** What about the Kd (HLA-B*15:17; [23]) of the same sequence?
**A.** ≥ 20 µM

**Q.** What about the Kd (HLA-B*18:01; [23]) of the same sequence?
**A.** ≥ 20 µM

**Q.** And the Kd (HLA-B*27:05; [23])?
**A.** ≥ 20 µM

**Q.** And the Kd (HLA-B*39:01 [4]; [24])?
**A.** ≥ 20000 nM

**Q.** And the Kd (HLA-B*57:01; [23])?
**A.** ≥ 20 µM

**Q.** And the Kd (HLA-B*58:01; [23])?
**A.** ≥ 20 µM

**Q.** What about the Kd (HLA-A*68:02 [14]) of the same sequence?
**A.** ≥ 20 µM

**Q.** VMETENALF was tested. Which Kd (HLA-A*01:01 [1]; [19]) did it give?
**A.** 5.02 µM

**Q.** What about the Kd (HLA-A*02:01 [7]; [19]) of the same sequence?
**A.** ≥ 20 µM

**Q.** And the Kd (HLA-A*03:01; [19])?
**A.** ≥ 20 µM

**Q.** And the Kd (HLA-A*11:01; [19])?
**A.** ≥ 20 µM

**Q.** What about the Kd (HLA-A*26:01; [19]) of the same sequence?
**A.** ≥ 20 µM

**Q.** And the Kd (HLA-A*30:01)?
**A.** ≥ 44.8 µM

**Q.** And the Kd (HLA-A*31:01; [19])?
**A.** ≥ 20 µM

**Q.** What about the Kd (HLA-A*69:01; [19]) of the same sequence?
**A.** ≥ 20 µM

**Q.** What about the Kd (HLA-B*08:01 [8]; [19]) of the same sequence?
**A.** ≥ 20 µM

**Q.** What about the Kd (HLA-B*15:01 [9]; [19]) of the same sequence?
**A.** 301 nM

**Q.** And the Kd (HLA-B*27:05; [19])?
**A.** ≥ 20 µM

**Q.** And the Kd (HLA-B*35:01; [19])?
**A.** 427 nM

**Q.** What about the Kd (HLA-B*40:01 [10]) of the same sequence?
**A.** ≥ 20 µM

**Q.** What about the Kd (HLA-B*44:02) of the same sequence?
**A.** ≥ 20 µM

**Q.** Which results are given for RFLEDYFGV?
**A.** Kd (HLA-A*02:01 [7]; [25]): 0.141 µM; Kd (HLA-A*31:01; [25]): 0.558 µM; Kd (HLA-A*69:01; [25]): 0.547 µM; Kd (HLA-A*02:11): 4.1 nM; Kd (HLA-A*02:12): 44.3 nM

**Q.** Which Kd (HLA-B*15:09; source organism: Escherichia coli O157:H7 str. EC869) does the source give for HHSLTHHQL here?
**A.** 2 nM

**Q.** Which Kd (HLA-A*01:01 [15]) does the source give for SVDGFRASY here?
**A.** 7.1 nM

**Q.** And the Kd (HLA-A*29:02)?
**A.** 1.3 nM

**Q.** Which results are given for EHIPTMKIF?
**A.** Kd (HLA-B*15:09; source organism: Variola virus): 304 nM; Kd (HLA-B*39:01 [4]; source organism: Camelpox virus M-96): 1340 nM

**Q.** FPPGTSLTI was tested. Which Kd (HLA-C*05:01) did it give?
**A.** ≥ 20 µM

**Q.** And the Kd (HLA-B*07:02 [16])?
**A.** 187 nM

**Q.** What about the Kd (HLA-B*51:01) of the same sequence?
**A.** 564 nM
